# According to the RNAGym collection of RNA variant scans (doi:10.7554/elife.80360):
# B1: Hammerhead Ribozyme (parent)
# chain: ACCGGAUGUGCUUUCCGGUCUGAUGAGUCCGUGAGGACGAAACAG
# Variants of: B1
# Assay: self-cleavage, relative activity (ratio to wild type); higher = more cleavage; co-transcriptional
row,Variant,self-cleavage
1,G17C U32G,0.545
2,G18A A34C,0.537
3,G18A A34U,0.515
4,G18A A34G,0.562
5,C16U U19C,0.572
6,C16U U19G,0.359
7,C16U U19A,0.344
8,G17C G31C,0.563
9,G17C G31A,0.699
10,G17C G31U,0.713
11,G17C G35A,0.535
12,G17C G35U,0.371
13,G17C G35C,0.403
14,G17U U24G,0.704
15,G17U U24C,0.697
16,G17U U24A,0.781
17,C16U U21A,0.698
18,C16U U21C,0.473
19,C16U U21G,0.588
20,G17A G45C,0.385
21,G17A G45U,0.411

row,Variant,self-cleavage
1,G17A G45A,0.413
2,G18A A40C,0.308
3,G18A A40U,0.288
4,G18A A40G,0.351
5,C16U G18U,0.746
6,C16U G18A,0.618
7,C16U G18C,0.529
8,G17A U24G,0.592
9,G17A U24A,0.704
10,G17A U24C,0.88
11,G17U A44C,0.495
12,G17U A44U,0.469
13,G17U A44G,0.877
14,G17A A26C,0.272
15,G17A A26U,0.447
16,G17A A26G,0.297
17,G17U C29G,0.591
18,G17U C29A,0.523
19,G17U C29U,0.748
20,G17C A23G,0.417
21,G17C A23U,0.326

row,Variant,self-cleavage
1,G17C A23C,0.327
2,G17A G27A,0.51
3,G17A G27C,0.399
4,G17A G27U,0.495
5,G17A A42U,0.396
6,G17A A42G,0.327
7,G17A A42C,0.341
8,G17A C38A,0.488
9,G17A C38G,0.478
10,G17A C38U,0.586
11,G17U A26U,0.527
12,G17U A26C,0.448
13,G17U A26G,0.33
14,C16U U28A,0.576
15,C16U U28G,0.798
16,C16U U28C,0.874
17,C16U C30U,1.02
18,C16U C30G,0.719
19,C16U C30A,0.831
20,G17C G39A,0.342
21,G17C G39C,0.291

row,Variant,self-cleavage
1,G17C G39U,0.33
2,G17A G22C,0.319
3,G17A G22U,0.345
4,G17A G22A,0.315
5,G17A A37U,0.528
6,G17A A37G,0.604
7,G17A A37C,0.642
8,G17C G45A,0.366
9,G17C G45C,0.4
10,G17C G45U,0.394
11,G17U A23U,0.35
12,G17U A23G,0.382
13,G17U A23C,0.32
14,G17A A23G,0.306
15,G17A A23C,0.325
16,G17A A23U,0.315
17,G17C G18U,0.455
18,G17C G18C,0.347
19,G17C G18A,0.361
20,G17U G33A,0.862
21,G17U G33U,0.9
